Test results: patent publication US20180140578A1, “METHODS AND COMPOSITIONS FOR THE DIAGNOSIS AND SELECTIVE TREATMENT OF CANCER” (Board of Regents of the University of Texas System, priority 2016, published 2018)

Tests used:
[1] = target: RBM39-3xFLAG (human) (UniProt Q14498); experiment: anti-FLAG IP of RBM39-3xFLAG from H1155 cells treated with DMSO (no indisulam), LC-MS/MS
[2] = target: RBM39-3xFLAG (human) (UniProt Q14498); experiment: anti-FLAG IP of RBM39-3xFLAG from H1155 cells treated with 10 µM indisulam, LC-MS/MS
[3] = target: DCAF15-3xFLAG (human) (UniProt Q66K64); experiment: pull-down of 100 nM RBM39Δ150 by DCAF15-3xFLAG on anti-FLAG beads with rising indisulam, western blot (FIG. 4C)
DCAF15-3xFLAG (human), sequence (Q66K64 whole entry): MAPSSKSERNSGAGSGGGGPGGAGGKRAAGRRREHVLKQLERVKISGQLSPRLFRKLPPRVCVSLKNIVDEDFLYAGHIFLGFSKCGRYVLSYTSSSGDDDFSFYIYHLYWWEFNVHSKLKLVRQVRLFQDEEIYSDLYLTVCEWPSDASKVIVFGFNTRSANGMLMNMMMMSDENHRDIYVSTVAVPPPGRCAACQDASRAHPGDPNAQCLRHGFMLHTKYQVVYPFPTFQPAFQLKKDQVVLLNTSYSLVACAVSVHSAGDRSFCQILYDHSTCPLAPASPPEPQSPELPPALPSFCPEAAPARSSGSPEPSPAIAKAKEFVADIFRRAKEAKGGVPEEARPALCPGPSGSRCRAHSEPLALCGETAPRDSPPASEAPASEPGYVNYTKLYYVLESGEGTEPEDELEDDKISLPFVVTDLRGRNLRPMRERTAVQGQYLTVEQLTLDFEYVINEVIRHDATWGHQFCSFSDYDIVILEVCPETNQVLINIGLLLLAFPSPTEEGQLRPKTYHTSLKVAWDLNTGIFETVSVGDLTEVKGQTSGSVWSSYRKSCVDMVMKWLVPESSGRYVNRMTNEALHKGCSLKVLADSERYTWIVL

RBM39-3xFLAG (human), sequence (Q14498 whole entry): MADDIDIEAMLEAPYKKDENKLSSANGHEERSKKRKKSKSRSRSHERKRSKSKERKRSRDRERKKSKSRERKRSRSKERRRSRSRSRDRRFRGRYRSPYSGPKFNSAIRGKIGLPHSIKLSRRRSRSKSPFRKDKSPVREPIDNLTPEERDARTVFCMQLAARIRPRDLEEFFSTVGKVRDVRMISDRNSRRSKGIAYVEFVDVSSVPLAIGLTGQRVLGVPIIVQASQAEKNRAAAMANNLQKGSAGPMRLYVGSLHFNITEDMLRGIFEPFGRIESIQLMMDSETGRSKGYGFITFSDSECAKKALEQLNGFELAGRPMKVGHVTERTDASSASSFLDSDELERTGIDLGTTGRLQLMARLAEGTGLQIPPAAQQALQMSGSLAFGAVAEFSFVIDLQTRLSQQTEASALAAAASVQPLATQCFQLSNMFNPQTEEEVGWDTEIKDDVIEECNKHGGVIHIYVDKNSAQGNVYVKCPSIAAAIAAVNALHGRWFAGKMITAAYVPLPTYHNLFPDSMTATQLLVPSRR

Substance | DMSO total (peptide count) [1] | DMSO unique (peptide count) [1] | indisulam total (peptide count) [2] | indisulam unique (peptide count) [2] | indisulam concentration at which the complex was apparent [3]
CUL4B (from UniProt Q13620 1-913) | 0 peptides | 0 peptides | 16 peptides | 15 peptides | 
DDX46 (from UniProt Q7L014 2-1031) | 0 peptides | 0 peptides | 6 peptides | 6 peptides | 
DKFZp686J1372 (from UniProt Q5HYB6 1-232) | 0 peptides | 0 peptides | 4 peptides | 4 peptides | 
HDX (from UniProt Q7Z353 1-690) | 0 peptides | 0 peptides | 15 peptides | 14 peptides | 
PPM1B (from UniProt O75688 2-479) | 0 peptides | 0 peptides | 5 peptides | 5 peptides | 
PSMC5 (from UniProt P62195 2-406) | 0 peptides | 0 peptides | 6 peptides | 6 peptides | 
YWHAB (from UniProt P31946 1-246) | 0 peptides | 0 peptides | 5 peptides | 4 peptides | 

Continued, values first:

DMSO total (peptide count) [1] | DMSO unique (peptide count) [1] | indisulam total (peptide count) [2] | indisulam unique (peptide count) [2] | indisulam concentration at which the complex was apparent [3] | Substance
1 peptides | 1 peptides | 11 peptides | 10 peptides |  | ANXA2 (from UniProt P07355 2-339)
1 peptides | 1 peptides | 11 peptides | 11 peptides |  | CUL4A (from UniProt Q13619 1-759)
0 peptides | 0 peptides | 4 peptides | 4 peptides |  | DDA1 (from UniProt Q9BW61 2-102)
5 peptides | 4 peptides | 52 peptides | 46 peptides |  | DDB1 (from UniProt Q16531 2-1140)
0 peptides | 0 peptides | 6 peptides | 6 peptides |  | FUS (from UniProt P35637 1-526)
0 peptides | 0 peptides | 4 peptides | 4 peptides |  | PDIA3 (from UniProt P30101 25-505)
0 peptides | 0 peptides | 5 peptides | 5 peptides |  | PSMD11 (from UniProt O00231 2-422)
 |  |  |  | 0.1 µM | RBM39Δ150 (from UniProt Q14498 151-530)
0 peptides | 0 peptides | 4 peptides | 4 peptides |  | TPI1 (from UniProt P60174 2-249)
0 peptides | 0 peptides | 4 peptides | 4 peptides |  | TPM3 (from UniProt P06753 2-285)
